± gives the standard deviation of the averaged measurements.
system: Saccharomyces cerevisiae; assay: protein stability index of tFT-peptide fusion (C-terminal peptide) (PSI (0-1 scale)); higher = more stable (slower turnover); conditions: genetic background: wild type; temperature: 30 C
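Also: PSI is a weighted mean of sequencing reads over stability bins, variants kept only with over 10 reads, mCherry proximal and sfGFP distal, peptide attached via GGGS linker.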

Row | Sequence | protein stability index
1 | VNKRRCIGERDG | 0.6949 ± 0.0029
2 | VNMMYEIWPLGN | 0.624 ± 0.038
3 | VNRYSKETDAVF | 0.6719 ± 0.0043
4 | VNYRVWRKRGGR | 0.644 ± 0.057
5 | VPEMFSSGIKGG | 0.653 ± 0.072
6 | VPLPLHLPPPLP | 0.863 ± 0.12
7 | VPMVFSIYFGVS | 0.563 ± 0.012
8 | VPPPLASPPVTP | 0.698 ± 0.055
9 | VPPPVCAVPPPL | 0.684 ± 0.036
10 | VPPSKQRSRIKD | 0.675 ± 0.028
11 | VPRGPRFHIILS | 0.594 ± 0.035
12 | VPRLPPSPPPLP | 0.779 ± 0.076
13 | VPSCWVSFPPSP | 0.732 ± 0.04
14 | VPSPPCPPHLPI | 0.655 ± 0.012
15 | VPVALWEAPAVH | 0.601 ± 0.013
16 | VPVIGRSCPFLP | 0.6581 ± 0.0013
17 | VPYFRSMSSLSI | 0.6347 ± 0.0039
18 | VQKITRLVDKVV | 0.813 ± 0.065
19 | VQNPVTTPQEQF | 0.684 ± 0.043
20 | VQTYVRARVDRL | 0.711 ± 0.024
21 | VRAGFRAWGVSE | 0.572 ± 0.2
22 | VRAHARPTKGKP | 0.682 ± 0.059
23 | VRATNLSSVGIF | 0.619 ± 0.011

Row | Sequence | protein stability index
24 | VREFRRAVFVGS | 0.544 ± 0.02
25 | VREGTKDGGSRV | 0.544 ± 0.042
26 | VRESLGANACSR | 0.69 ± 0.058
27 | VRFARSGPAHVC | 0.6607 ± 0.003
28 | VRFKDFDDLGSL | 0.704 ± 0.067
29 | VRGRGRSWRRVK | 0.758 ± 0.18
30 | VRGRLGGGVGRA | 0.686 ± 0.079
31 | VRGVGGLWGGAV | 0.785 ± 0.17
32 | VRHGERGGGLGD | 0.782 ± 0.06
33 | VRHSCRTTTPPS | 0.708 ± 0.009
34 | VRNKGVAKDHCP | 0.661 ± 0.064
35 | VRNPLRSFSGDA | 0.64 ± 0.049
36 | VRNVVYWEFVVE | 0.585 ± 0.063
37 | VRPPPPPRSSPL | 0.742 ± 0.055
38 | VRPQLGNHRILV | 0.609 ± 0.0067
39 | VRQGERGGGLGD | 0.747 ± 0.038
40 | VRRARATLYSWL | 0.693 ± 0.052
41 | VRRETGPPRAPT | 0.6717 ± 0.0019
42 | VRRVVDESKTRD | 0.659 ± 0.038
43 | VRSGKGKNRWNK | 0.719 ± 0.024
44 | VRSLFSFRLRGS | 0.633 ± 0.056
45 | VRVCGPSCFRPG | 0.628 ± 0.05
46 | VRWLLTSHARLT | 0.484 ± 0.12

Row | Sequence | protein stability index
47 | VRWSRMGCNWGG | 0.585 ± 0.093
48 | VSAPTHVSRVTQ | 0.649 ± 0.0088
49 | VSARWSTSLCLS | 0.533 ± 0.015
50 | VSDGGCIFHRRT | 0.704 ± 0.055
51 | VSEGFVLGGSCG | 0.663 ± 0.0074
52 | VSGPTPAPLSSL | 0.695 ± 0.028
53 | VSGSSAIFLLWC | 0.706 ± 0.1
54 | VSHKETNKIKPN | 0.701 ± 0.097
55 | VSIAYARHGDSV | 0.693 ± 0.028
56 | VSKYNGIKRRNG | 0.6 ± 0.0085
57 | VSLCYGGGFWGG | 0.722 ± 0.014
58 | VSLVLESFFGRV | 0.719 ± 0.014
59 | VSPFSILLPVPL | 0.608 ± 0.017
60 | VSPLFQDFSIIN | 0.717 ± 0.06
61 | VSPTGRRGYGRS | 0.66754 ± 0.00015
62 | VSRGESEVKAGG | 0.673 ± 0.1
63 | VSRGRVKETGEE | 0.713 ± 0.038
64 | VSRKEQYPEAQE | 0.625 ± 0.033
65 | VSSFALDVGFHF | 0.638 ± 0.068
66 | VSSFGHTFCGWI | 0.618 ± 0.018
67 | VSSPLLFCSIFL | 0.675 ± 0.026
68 | VSSTLVARTVWC | 0.69 ± 0.035
69 | VTGGGVGHWGWW | 0.761 ± 0.052

Row | Sequence | protein stability index
70 | VTGSGVGGSPEC | 0.683 ± 0.042
71 | VTLFFLFSLSPP | 0.56 ± 0.013
72 | VTLWGFFRVLSL | 0.686 ± 0.043
73 | VVARFDTILLWS | 0.608 ± 0.06
74 | VVARGGGGGSGA | 0.583 ± 0.016
75 | VVAVRLPNVRHY | 0.655 ± 0.018
76 | VVAVTTIDSTHL | 0.682 ± 0.033
77 | VVFASNGSYVLG | 0.672 ± 0.041
78 | VVFTSISFGLFV | 0.572 ± 0.044
79 | VVGAHLWSGFSA | 0.711 ± 0.013
80 | VVGGAGRRYVEG | 0.702 ± 0.036
81 | VVGKKQTGEKEK | 0.725 ± 0.048
82 | VVGRWRVCNVGL | 0.626 ± 0.05
83 | VVGVLRVRSGEN | 0.606 ± 0.03
84 | VVGYAIRVRSGL | 0.593 ± 0.018
85 | VVLWSTGRVLYG | 0.699 ± 0.025
86 | VVPDVGVVTSPA | 0.649 ± 0.072
87 | VVRCVLSQKCLV | 0.578 ± 0.015
88 | VVSRTCVRWGLV | 0.655 ± 0.039
89 | VVSVQHEVIIFL | 0.611 ± 0.05
90 | VVSWLGAGYSVR | 0.7 ± 0.071
91 | VVWLWGAGWGCD | 0.747 ± 0.022
92 | VVYFGVVVEGQV | 0.514 ± 0.032

Row | Sequence | protein stability index
93 | VWAGGSLLGCVG | 0.686 ± 0.044
94 | VWAVALSRQGPC | 0.689 ± 0.016
95 | VWFFSHFCGVRF | 0.686 ± 0.012
96 | VWGAGGGVWGLG | 0.793 ± 0.0085
97 | VWGRRVMESHGE | 0.628 ± 0.042
98 | VWLGTCLPRRAV | 0.725 ± 0.13
99 | VWRCWGGKGQDS | 0.729 ± 0.037
100 | VWRRCVPGPASP | 0.67 ± 0.0097
101 | VWSSCAGDVLFD | 0.734 ± 0.039
102 | VWVFGLGLGRVV | 0.691 ± 0.032
103 | VWVGSLWEHPTV | 0.781 ± 0.17
104 | VWVWVGGGSRGC | 0.7121 ± 0.0041
105 | VYAETMTKELRG | 0.69 ± 0.053
106 | VYDCDVRHFGQC | 0.761 ± 0.053
107 | VYHMFHLGPSFD | 0.7051 ± 0.0015
108 | VYLEWQFGIKEL | 0.648 ± 0.052
109 | VYMWFVDSPGGS | 0.682 ± 0.037
110 | VYSLQSFSVRRY | 0.704 ± 0.018
111 | VYYRRFTGGGLY | 0.583 ± 0.016
112 | WACYRLGCGGSW | 0.774 ± 0.041
113 | WAFSAFDHCVAS | 0.665 ± 0.058
114 | WCAYRPGSTGHR | 0.731 ± 0.058
115 | WCLDVGSVSWPF | 0.79432 ± 0.0005

Row | Sequence | protein stability index
116 | WCNLSFEDNYVT | 0.658 ± 0.018
117 | WCWCSLVVDGTA | 0.5707 ± 0.0047
118 | WFGAECVCVRGG | 0.762 ± 0.2
119 | WFHSANLFLSLS | 0.705 ± 0.077
120 | WFPNQCFENEIP | 0.742 ± 0.054
121 | WFRCCGVLGCLG | 0.657 ± 0.019
122 | WFRGRIFLFPLV | 0.628 ± 0.014
123 | WGDGRGRVWEIS | 0.674 ± 0.048
124 | WGEGRGRVWEIS | 0.665 ± 0.036
125 | WGGCGSVGRGGA | 0.739 ± 0.052
126 | WGGGGGGDCVGA | 0.6732 ± 0.0029
127 | WGGGGGLCGMWA | 0.679 ± 0.032
128 | WGGGGPGWGSRG | 0.621 ± 0.027
129 | WGGRNWDGRGCG | 0.612 ± 0.068
130 | WGGWGVGGRVLW | 0.675 ± 0.066
131 | WGIQGIKFFVGA | 0.7111 ± 0.0032
132 | WGISRSLRPGEV | 0.739 ± 0.12
133 | WGQSMFSLLVSI | 0.542 ± 0.035
134 | WGRRVRVEGVVL | 0.613 ± 0.022
135 | WGSGGGRDGCGV | 0.655 ± 0.083
136 | WGTVIYGVGSGQ | 0.691 ± 0.036
137 | WGVCVIDSWQEG | 0.6706 ± 0.0032
138 | WGVGVCSRVLRS | 0.674 ± 0.026

Row | Sequence | protein stability index
139 | WGVVAVSGRLGA | 0.78 ± 0.012
140 | WGWGVGWSGACL | 0.7116 ± 0.0017
141 | WGWGVLRRRVGA | 0.76 ± 0.082
142 | WGWGWWEMVGRT | 0.674 ± 0.0039
143 | WGWSGGEDCLEG | 0.64 ± 0.0073
144 | WHDCLYLWADLG | 0.693 ± 0.04
145 | WILFQAGSREIR | 0.701 ± 0.017
146 | WISARQHQKTRL | 0.702 ± 0.065
147 | WKQEKYTFKKRT | 0.707 ± 0.032
148 | WLFGSFSLLFWL | 0.522 ± 0.015
149 | WLFVALRGRFEF | 0.59 ± 0.042
150 | WLKVRINFYKRK | 0.52 ± 0.038
151 | WLRCGCVKWAGG | 0.657 ± 0.013
152 | WLVPLDYKEGVV | 0.687 ± 0.035
153 | WNQRMEPCLMSS | 0.65 ± 0.026
154 | WPASLCRLGSVH | 0.64894 ± 0.00014
155 | WPGRTGANTRSG | 0.671 ± 0.11
156 | WPLLLHLLHLLR | 0.697 ± 0.12
157 | WPLPRPEFCGAP | 0.6316 ± 0.0011
158 | WPLVGLIGVPGR | 0.668 ± 0.035
159 | WPMYSVIKAQLK | 0.638 ± 0.015
160 | WPPPPPPPASPH | 0.719 ± 0.071

From the supplement of paper PMC10724198
